Test results taken from the supplement of paper PMC9732359.
± gives the uncertainty stated by the source.

Experiment: protein stability index of a GFP-peptide fusion (yeast GPS) (PSI 1-4); higher = more stable; sorted into four equal gates, so the index is relative within each strain
How it was run: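 Yeast carrying a pooled library were grown to mid-log phase in leucine-free medium. Each library plasmid expresses Cherry and has a tiled 17-residue yeast protein peptide fused downstream of GFP. Cells were sorted into four equal gates by GFP/Cherry ratio, and plasmids from each gate were PCR-amplified, Illumina-sequenced and assigned to strains by barcode. Summing, across gates, the read frequency times the gate number gave each peptide's protein stability index.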

Sequence	protein stability index (doa10∆)	protein stability index (pdr5∆)	protein stability index (san1∆)	protein stability index (ubr1∆)
KKAKLVLIANDVDPIEL [RPL8A]	3.17 ± 0.15	2.81 ± 0.068	3.09 ± 0.07	2.83 ± 0.072
KKALKVRTSATFRLPKT [RPL25]	2.87 ± 0.13	–	–	3.18 ± 0.13
KKEATKPAFSFGINTNT [YLR335W/NUP2]	2.99 ± 0.062	3.02 ± 0.086	3.26 ± 0.038	3.35 ± 0.056
KKFATVPTGGASSAAAG [RPP2B]	3.17 ± 0.13	3.21 ± 0.14	2.89 ± 0.079	3.06 ± 0.067
KKHGKTDYFLPKNYSLH [YJL039C/NUP192]	2.76 ± 0.057	2.63 ± 0.069	2.71 ± 0.049	2.35 ± 0.049
KKIENTMLENITLRGVE [RPO21]	3.38 ± 0.12	2.79 ± 0.12	2.98 ± 0.07	3.09 ± 0.077
KKKRKKKNKSAIDGIFG [RMP1]	2.47 ± 0.045	2.83 ± 0.045	2.81 ± 0.042	3.03 ± 0.038
KKKTKKELELERKERED [SWI1]	3.62 ± 0.12	3.37 ± 0.073	3.51 ± 0.051	3.31 ± 0.043
KKLESQESLVKLFTTNE [RPN5]	2.94 ± 0.11	3.12 ± 0.13	3.22 ± 0.081	2.88 ± 0.12
KKLLEVHDIFSKIFNES [CDC53]	2.84 ± 0.072	2.71 ± 0.059	2.77 ± 0.057	2.66 ± 0.05
KKMMNTSDSESTLYKYL [SWI3]	2.94 ± 0.079	2.87 ± 0.075	2.79 ± 0.083	2.75 ± 0.05
KKNDMNTSAKNKNGENK [SIR4]	2.59 ± 0.06	2.69 ± 0.061	3.03 ± 0.054	3.12 ± 0.066
KKNLGRLTRLWIKNEQE [PRP8]	1.72 ± 0.063	1.89 ± 0.063	1.25 ± 0.19	2.5 ± 0.25
KKNNLEFGTYGKYVIAG [RPN14]	2.51 ± 0.088	2.09 ± 0.069	1.79 ± 0.14	2.1 ± 0.065
KKRESGVEEEEELKDSE [SNF2]	3.38 ± 0.28	–	3.3 ± 0.12	–
KKRIRLPSEERIQKIIS [YIL149C/MLP2]	2.66 ± 0.074	2.49 ± 0.062	2.71 ± 0.081	2.72 ± 0.04
KKTVAGGAYTVSTAAAA [RPL43A]	2.43 ± 0.068	2.46 ± 0.065	2.15 ± 0.074	2.15 ± 0.05
KKVKSASKKSGGDVVKF [SMC4]	3.09 ± 0.15	3.68 ± 0.15	2.89 ± 0.21	3.12 ± 0.16
KKVMPAIVVRQAKSWRR [RPL23A]	2.84 ± 0.14	2.85 ± 0.088	2.64 ± 0.16	2.99 ± 0.063
KKVSRRNARAARAAKIA [RPL13B]	3.05 ± 0.084	2.65 ± 0.11	2.63 ± 0.18	2.69 ± 0.045
KKVTAFVPNDGCLNFVD [RPS23A]	2.88 ± 0.054	3.17 ± 0.046	3.11 ± 0.032	2.85 ± 0.035
KKWPQFYAAVQKNYADP [SIN4]	1.5 ± 0.07	2.09 ± 0.084	2.77 ± 0.13	2.18 ± 0.075
KLDASKKQQAALTNELN [YIL149C/MLP2]	2.79 ± 0.069	2.99 ± 0.075	2.68 ± 0.08	2.17 ± 0.062
KLDSKKILPTDIQLKNL [SRP68]	2.74 ± 0.1	2.78 ± 0.078	2.79 ± 0.061	2.69 ± 0.059
KLIAAAEDGSRSTKDMI [SNF6]	3.54 ± 0.15	3.69 ± 0.23	3.44 ± 0.14	3.54 ± 0.087

Sequence	protein stability index (doa10∆)	protein stability index (pdr5∆)	protein stability index (san1∆)	protein stability index (ubr1∆)
KLILHAIHIFESYYNWK [YML103C/NUP188]	1.57 ± 0.082	1.45 ± 0.07	1.58 ± 0.081	1.82 ± 0.056
KLKGLMKLNILDERFAS [IRR1]	2.29 ± 0.13	2.75 ± 0.083	2.4 ± 0.16	2.35 ± 0.064
KLKLLRMERIKDHLLLE [RPT2]	2.27 ± 0.079	2.05 ± 0.064	2.12 ± 0.092	1.86 ± 0.054
KLKQQSSTDIPSYTHVL [RRI1]	2.29 ± 0.034	2.48 ± 0.04	2.52 ± 0.045	2.49 ± 0.035
KLKRNSDRREHDEKLSD [LIN1]	3.51 ± 0.23	2.49 ± 0.16	3.22 ± 0.11	2.96 ± 0.13
KLLKQPKFDVGALMALH [RPS1A]	1.9 ± 0.056	2.16 ± 0.083	1.9 ± 0.084	1.9 ± 0.069
KLLKSLLLNYLELIGVL [MED7]	1.86 ± 0.052	1.56 ± 0.052	1.14 ± 0.098	1.33 ± 0.058
KLLQLFLTPMDSIDLAP [YML103C/NUP188]	1.9 ± 0.071	1.54 ± 0.062	1.76 ± 0.092	1.36 ± 0.038
KLNTLSEILSFDPVYTT [YML103C/NUP188]	2.54 ± 0.061	2.77 ± 0.067	2.85 ± 0.073	2.77 ± 0.078
KLNVVGWFHSHPGYDCW [RRI1]	2.59 ± 0.095	2.38 ± 0.099	2.61 ± 0.13	2.38 ± 0.064
KLRGDLREAPADYWTHA [SNF6]	–	3 ± 0.27	–	2.99 ± 0.12
KMENFEFLPLSLHILMI [SRB8]	2.79 ± 0.077	2.8 ± 0.054	1.91 ± 0.076	2.85 ± 0.06
KMKIQETISKLNEYKRE [SMC2]	1.3 ± 0.065	1.48 ± 0.051	2.35 ± 0.084	1.93 ± 0.036
KMVAKGLNDLVEQYKFR [BRR2]	3.35 ± 0.12	3.17 ± 0.12	3.03 ± 0.11	3.14 ± 0.096
KMVGLRGFNNQIMQLKK [SNF2]	3.35 ± 0.063	3.21 ± 0.073	3.04 ± 0.068	3.35 ± 0.041
KNEKLILEESLNAIILK [SMC3]	2.74 ± 0.075	2.64 ± 0.087	2.18 ± 0.17	2.65 ± 0.064
KNEPDYSKAKYPDLQPF [CDC53]	2.35 ± 0.086	2.58 ± 0.089	2.06 ± 0.13	2.5 ± 0.085
KNGAQDLVLQILEDTAT [RRI2]	3.37 ± 0.08	3.3 ± 0.095	3.33 ± 0.054	3.18 ± 0.072
KNGTIVKKAVTVHSKSR [RPL19A]	2.44 ± 0.068	2.8 ± 0.068	2.45 ± 0.079	1.96 ± 0.068
KNINIGKHSQEQNSSSA [SIR4]	3 ± 0.072	3.13 ± 0.082	3.29 ± 0.1	3.25 ± 0.057
KNKDSLVSNPHEIYGSM [SRB4]	3.04 ± 0.084	3.09 ± 0.09	2.96 ± 0.07	3.26 ± 0.14
KNMPVIYNNIVSNIEGI [RGR1]	2.43 ± 0.055	2.69 ± 0.066	2.5 ± 0.05	2.56 ± 0.041
KNRSNRKRFHSQSKGTV [YOR098C/NUP1]	3.21 ± 0.18	3.11 ± 0.18	2.89 ± 0.16	3.26 ± 0.19
KNSFQQALQMKAMDIPI [SWP82]	1.29 ± 0.035	1.55 ± 0.055	1.37 ± 0.064	1.59 ± 0.038
KPENKTDKVSLSQPVSA [SIR4]	2.81 ± 0.055	2.68 ± 0.052	2.49 ± 0.063	2.14 ± 0.037
